Test system: MS2 coat protein
Test: apparent KD of MS2 coat protein; designed switch direction (-1 OFF switch, 1 ON switch): -1; higher = weaker reporter binding
Summary of the method: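 Apparent KD, taken as the median over clusters for each design, was obtained by curve-fitting normalised cluster fluorescence. Designed RNA switches had been transcribed on Illumina chips by stalled E. coli RNA polymerase and titrated with SNAP-549-labelled MS2 coat protein, doubling from 0.7 or 1.5 nM to 3 µM.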

[1] = input ligand: microRNA oligo, concentration not stated
[2] = Eterna round: R95, input ligand: FMN 200 uM
[3] = Eterna round: R95, input ligand: microRNA oligo, concentration not stated
[4] = Eterna round: R95, input ligand: none

Sequence | apparent KD of MS2 coat protein (input ligand: FMN 200 uM) [nM] | apparent KD of MS2 coat protein (input ligand: none) [nM] | apparent KD of MS2 coat protein [1] [nM] | apparent KD of MS2 coat protein [2] [nM] | apparent KD of MS2 coat protein [3] [nM] | apparent KD of MS2 coat protein [4] [nM]
CGACGUGGAGUGAGGAUAUCGUGUUCGAAAGAACGUGAGAAGGCACAUGAGGAUCACCCAUGUGAUUCACGUCG [Omei Ex4B A5] (Eterna round: R97, puzzle: Brourd's mod of Exclusion 4) | 27.7 | 20.6 |  |  |  | 
AAAAAAAAGUGAGGAUAUGGAAAUUUGGUGAUAACAUGAGGAUCACCCAUGUGAAAACAAUAAAAUUAGAAGGUAUAAAAAAAA [AK ExNG2-1] (Eterna round: R96, puzzle: Exclusion NG 2) | 122 | 98.8 | 73.1 |  |  | 
UAAUACUCAGGAUAUAUGAUGUGAAACAUGAGGAUCACCCAUGUAAUAUUAUGGAUGUAAAUAGAAGGGAGAUUAU [Mat - Exclusion 5 - JL mod - D20] (puzzle: Exclusion 5) |  |  |  | 53.3 | 55.4 | 63
CUUAGCCUAAAAUCACGCAAGCUUCUUGCUUGUCUUAAGACAUGAGGAUCACCCAUGUCCGGGCUGAACUUAUGGAA [Enonzave] (puzzle: Sensor v3, turn-off variant 2) |  |  |  | 17.8 | 21.1 | 17.4
UAUUAGCAAGCGAGAUCCCACAUGAGGAUCACCCAUGUGCUCGUCUUAUAAGGUACUGUGACGAAAGUCACGGUACC [Sensor 3, v1 - 91] (puzzle: Sensor v3, turn-off variant 1) |  |  |  | 12.6 | 441 | 10.8
AAAUACAAGCAAAGAUCCUACAUGAGGAUCACCCAUGUGCUCGUCUUAUAAAGUACUAUCACGAAAGUGAUAGUACA [Sensor 3, v1 - 15] (puzzle: Sensor v3, turn-off variant 1) |  |  |  | 286 | 48.2 | 1110
AUUGUUUAUGUAGGAUAUGCCUGGCGUGCCUUUGCAGAAGGACAUGAGGAUCACCCAUGUAACAUGAGGCUCACCCAUGUCGCC [salish99_ExNG1_r04_114] (Eterna round: R96, puzzle: Exclusion NG 1) | 162 | 170 | 123 |  |  | 
CGCUGGACAGGAUAUGUUCUUGGGCACUUGAGGAUCACCCAAGUCAUCGGGACAACAGGCACAGAAGGGUUUAUGG [salish99_ex5_r4_025] (Eterna round: R97, puzzle: Exclusion 5) | 31.6 | 43.9 |  |  |  | 
UAUAUAUAGUAAGGAUAUGUAUUUAAUUUAUAAACAGAAGGUACUGACAUGAGGAUCACCCAUGUUUUAGUGUGGGCAUGUAGA [JMF's solution 13] (Eterna round: R96, puzzle: Exclusion NG 1) |  |  | 80.8 |  |  | 
AUUGAUGUUGAGGAUAUGCUUUUAUUUGUUCUUGCAGAAGGCGAUACAUGAGGAUCACCCAUGUUCAUGGAAGU [JR_E6_Sub090] (puzzle: Exclusion 6) |  |  |  |  | 39.7 | 
AGAUGCAGAGUAAGGAUAUGGUAGGCUUGCGCAAACCAGAAGGUACAUGAGGAUCACCCAUGUAAGCAUCAAGU [eternacac ex4r4 #5] (Eterna round: R97, puzzle: Brourd's mod of Exclusion 4) | 16 | 15.1 |  |  |  | 
GCGCCAUCGUGAGAUGGCGUAACGACAUGAGGAUCACCCAUGUAGGAUAUCGAUUGCUUUGCAGUCGAGAAGGGCAAGGUAAGU [JL ENG3 3.83] (Eterna round: R96, puzzle: Exclusion NG 3) |  |  | 24.3 |  |  | 
UAUUCGCAAGCGAGAUCCCACAUGAGGAUCACCCAUGUGCUCGUCUUAUAAGGUACUGUGACGAUAGUCACGGUACC [Mat - Sensor, turn-off var - Eli Mod - D81] (Eterna round: R97, puzzle: Sensor, turn-off variant 1) | 16.7 | 16.3 |  |  |  | 
AAAAAGUGAGGAUAUACAUGAGGAUCACCCAUGUAAUAAAAAAAAAGGGUGGAAGAAAGUAGAAGGCACCAAAA [Ex 3 May 48] (Eterna round: R96, puzzle: Exclusion 3) | 323 | 65.3 | 64.5 |  |  | 
GGUCCGUCAGUGAGGAUAUUGAGGAGGAGGAGGGACAAGAAGGCACAUGAGGAUCACCCAUGUAGGGACGGACG [Alacar 1st] (Eterna round: R97, puzzle: Brourd's mod of Exclusion 4) | 46.4 | 21.2 |  |  |  | 
GACCUCAGUCAGGAUAUAGAUAGCGAUAGCGAAUUAGAAGGGACCACAUGAGGAUCACCCAUGUUAGUAUCAUU [Eternabot (L2) Solution 10] (Eterna round: R97, puzzle: Exclusion 6) | 38.9 | 34.2 |  |  |  | 
CAGUACUGAGGAUAUACAUGAGGAUCACCCAUGUGUUCCAGCUGGGAAACUAGCAAAAGUAGAAGGCAGUACUG [salish99_ex3_r3_076] (Eterna round: R96, puzzle: Exclusion 3) | 287 | 21.8 | 21.4 |  |  | 
AAAAAGGUAGGAUAUACGAAAAAAAAGGGUAAAAUAAAUAAACAUGAGGAUCACCCAUGUAGAAGGACCAAAAA [Mat - Exclusion 2 - Tesla mod - D38] (Eterna round: R96, puzzle: Exclusion 2) |  |  | 22.8 |  |  | 
AUGUACCGAAGAAGUUGUAACAUGAGGAUCACCCAUGUCGAAGUGAGGACAGGGAAGAGAAGCUGUGCUCGUCAUAG [Eternabot (L2) Solution 17] (Eterna round: R97, puzzle: Sensor, turn-off variant 1) | 71.6 | 77.9 |  |  |  | 
UCUUGUUGUCCGUGAGAAUACAUGAGGAUCACCCAUGUUAGUUUGAUUAUGAUGUGUAAGUUUGUUGCUCGUUUUAU [JR_STOV1_Sub070] (Eterna round: R97, puzzle: Sensor, turn-off variant 1) | 36.4 | 41.3 |  |  |  | 
CAAAAGCUAGGAUAUCGCAAACAAGACAUGAGGAUCACCCAUGUGUCCAUGGCCGACCUCCGAGAAGGAGCAAUAU [Dieded] (puzzle: Exclusion 5) |  |  |  | 32.5 | 27.9 | 30.5
UUGUAACGAUUAGGAUAUUAUUAAUAGAACUUUAUGAUAUACAUGAGGAUCACCCAUGUUACUUUUAAGAAGGAAUCGUAUUAU [JR_ExcNG2_Sub091] (Eterna round: R96, puzzle: Exclusion NG 2) |  |  | 17 |  |  | 
UUUUAACAUGAGGAUCACCCAUGUGAGGAUAUCGAAAUUUAUAUUAAUAUUAAUUAAACGAGAAGGCACAUUUU [JMF 27] (puzzle: Exclusion 1) |  |  |  |  | 72.5 | 
UUUCCUGCGCGGGUUUUUUACAUGAGGAUCACCCAUGUCCUCUGCUUGUCUUGUCUUGGGCUUGUUUCGGGUUCGGG [-18.4, -40.2 kcal, A 8%] (Eterna round: R97, puzzle: Sensor, turn-off variant 1) | 635 | 1190 |  |  |  | 
GACAUACAUGAGGAUCACCCAUGUAAGGAUAUACGCAGUAGACUCCGAGGGACCUGAAGUAGAAGGUACAGGGU [Eternabot (L2) Solution 72] (Eterna round: R97, puzzle: Exclusion 1) | 103 | 34.5 |  |  |  | 

Source: the supplement of paper PMC9170038
